Substitutions are numbered along the chain they refer to. Numbers in names are those of the source.

The source of these data is article PMC10786891, “Massively parallel profiling of RNA-targeting CRISPR-Cas13d”.

Sequences and labels used below:
B1: target 1 insA 3' of 4,insG 3' of 4 (mixed)
RNA 1: CACCCGUGCAAAAAUGCAGGGGUCUAAAACUGAGCGGAUAACCUCUCUAUGG
RNA 2: GGGAAUGGAUCCACAUCUACGAAUUCGUACCAUAGAGAGGUUAUCCGCAGUCACCGAGAUCGGAAGAGCACACGU
B2: target 1 C6G,A18U (mixed)
RNA 1: B1 RNA 1
RNA 2: GGGAAUGGAUCCACAUCUACGAAUUCGUACCAUUGAGAGGUUAUCGGCUCACCGAGAUCGGAAGAGCACACGU
B3: target 1 insA 3' of 21,insC 3' of 11 (mixed)
RNA 1: B1 RNA 1
RNA 2: GGGAAUGGAUCCACAUCUACGAAUUCGUACCAAUAGAGAGGUCUAUCCGCUCACCGAGAUCGGAAGAGCACACGU
B4: target 1 C6G,A14U (mixed)
RNA 1: B1 RNA 1
RNA 2: B2 RNA 2 with U34A, A38U
B5: target 2 MT 5'PFS ACG 3'PFS CGC (mixed)
RNA 1: CACCCGUGCAAAAUUGCAGGGGUCUAAAACCUUCUCCAAAUUGUUUCAUCCU
RNA 2: GGGAAUGGAUCCACAUCUACGAAUUCACGAGGAUGAAACAAUUUGGAGAAGCGCAGAUCGGAAGAGCACACGU
B6: target 2 MT 5'PFS GAC 3'PFS CUC (mixed)
RNA 1: B5 RNA 1
RNA 2: B5 RNA 2 with A27G, C28A, G29C, G53U
B7: target 2 MT 5'PFS CUU 3'PFS UGA (mixed)
RNA 1: B5 RNA 1
RNA 2: B5 RNA 2 with A27C, C28U, G29U, C52U, C54A
B8: target 2 MT 5'PFS CUU 3'PFS UGC (mixed)
RNA 1: B5 RNA 1
RNA 2: B5 RNA 2 with A27C, C28U, G29U, C52U
B9: target 2 MT 5'PFS ACU 3'PFS CAA (mixed)
RNA 1: B5 RNA 1
RNA 2: B5 RNA 2 with G29U, G53A, C54A
B10: target 2 MT 5'PFS GCC 3'PFS UUA (mixed)
RNA 1: B5 RNA 1
RNA 2: B5 RNA 2 with A27G, G29C, C52U, G53U, C54A
B11: target 2 MT 5'PFS GAG 3'PFS AUU (mixed)
RNA 1: B5 RNA 1
RNA 2: B5 RNA 2 with A27G, C28A, C52A, G53U, C54U
B12: target 2 MT 5'PFS GCA 3'PFS CAG (mixed)
RNA 1: B5 RNA 1
RNA 2: B5 RNA 2 with A27G, G29A, G53A, C54G
B13: target 2 MT 5'PFS GUC 3'PFS CCG (mixed)
RNA 1: B5 RNA 1
RNA 2: B5 RNA 2 with A27G, C28U, G29C, G53C, C54G
B14: target 2 MT 5'PFS UAA 3'PFS ACU (mixed)
RNA 1: B5 RNA 1
RNA 2: B5 RNA 2 with A27U, C28A, G29A, C52A, G53C, C54U
B15: target 2 MT 5'PFS UAA 3'PFS ACG (mixed)
RNA 1: B5 RNA 1
RNA 2: B5 RNA 2 with A27U, C28A, G29A, C52A, G53C, C54G
B16: target 2 MT 5'PFS CUU 3'PFS UGU (mixed)
RNA 1: B5 RNA 1
RNA 2: B5 RNA 2 with A27C, C28U, G29U, C52U, C54U
B17: target 2 MT 5'PFS UAA 3'PFS ACA (mixed)
RNA 1: B5 RNA 1
RNA 2: B5 RNA 2 with A27U, C28A, G29A, C52A, G53C, C54A
B18: target 2 MT 5'PFS GCC 3'PFS UUU (mixed)
RNA 1: B5 RNA 1
RNA 2: B5 RNA 2 with A27G, G29C, C52U, G53U, C54U
B19: target 2 MT 5'PFS GAC 3'PFS CUU (mixed)
RNA 1: B5 RNA 1
RNA 2: B5 RNA 2 with A27G, C28A, G29C, G53U, C54U
B20: target 2 MT 5'PFS GCA 3'PFS CAA (mixed)
RNA 1: B5 RNA 1
RNA 2: B5 RNA 2 with A27G, G29A, G53A, C54A
B21: target 2 MT 5'PFS GCA 3'PFS CAC (mixed)
RNA 1: B5 RNA 1
RNA 2: B5 RNA 2 with A27G, G29A, G53A
B22: target 2 MT 5'PFS GCC 3'PFS UUC (mixed)
RNA 1: B5 RNA 1
RNA 2: B5 RNA 2 with A27G, G29C, C52U, G53U
B23: target 2 MT 5'PFS ACU 3'PFS CAC (mixed)
RNA 1: B5 RNA 1
RNA 2: B5 RNA 2 with G29U, G53A
B24: target 2 MT 5'PFS GAG 3'PFS AUA (mixed)
RNA 1: B5 RNA 1
RNA 2: B5 RNA 2 with A27G, C28A, C52A, G53U, C54A
B25: target 2 MT 5'PFS ACG 3'PFS CGA (mixed)
RNA 1: B5 RNA 1
RNA 2: B5 RNA 2 with C54A
B26: target 2 MT 5'PFS ACU 3'PFS CAG (mixed)
RNA 1: B5 RNA 1
RNA 2: B5 RNA 2 with G29U, G53A, C54G
B27: target 2 MT 5'PFS GUG 3'PFS CAU (mixed)
RNA 1: B5 RNA 1
RNA 2: B5 RNA 2 with A27G, C28U, G53A, C54U
B28: target 2 MT 5'PFS UAA 3'PFS ACC (mixed)
RNA 1: B5 RNA 1
RNA 2: B5 RNA 2 with A27U, C28A, G29A, C52A, G53C
B29: target 2 MT 5'PFS ACU 3'PFS CAU (mixed)
RNA 1: B5 RNA 1
RNA 2: B5 RNA 2 with G29U, G53A, C54U
B30: target 2 MT 5'PFS GCC 3'PFS UUG (mixed)
RNA 1: B5 RNA 1
RNA 2: B5 RNA 2 with A27G, G29C, C52U, G53U, C54G

The data set concerns the target T1, EsCas13d, nuclease-dead (Eubacterium siraeum, UniProt B0MS50, R295A;H300A;R849A;H854A).
T1 sequence: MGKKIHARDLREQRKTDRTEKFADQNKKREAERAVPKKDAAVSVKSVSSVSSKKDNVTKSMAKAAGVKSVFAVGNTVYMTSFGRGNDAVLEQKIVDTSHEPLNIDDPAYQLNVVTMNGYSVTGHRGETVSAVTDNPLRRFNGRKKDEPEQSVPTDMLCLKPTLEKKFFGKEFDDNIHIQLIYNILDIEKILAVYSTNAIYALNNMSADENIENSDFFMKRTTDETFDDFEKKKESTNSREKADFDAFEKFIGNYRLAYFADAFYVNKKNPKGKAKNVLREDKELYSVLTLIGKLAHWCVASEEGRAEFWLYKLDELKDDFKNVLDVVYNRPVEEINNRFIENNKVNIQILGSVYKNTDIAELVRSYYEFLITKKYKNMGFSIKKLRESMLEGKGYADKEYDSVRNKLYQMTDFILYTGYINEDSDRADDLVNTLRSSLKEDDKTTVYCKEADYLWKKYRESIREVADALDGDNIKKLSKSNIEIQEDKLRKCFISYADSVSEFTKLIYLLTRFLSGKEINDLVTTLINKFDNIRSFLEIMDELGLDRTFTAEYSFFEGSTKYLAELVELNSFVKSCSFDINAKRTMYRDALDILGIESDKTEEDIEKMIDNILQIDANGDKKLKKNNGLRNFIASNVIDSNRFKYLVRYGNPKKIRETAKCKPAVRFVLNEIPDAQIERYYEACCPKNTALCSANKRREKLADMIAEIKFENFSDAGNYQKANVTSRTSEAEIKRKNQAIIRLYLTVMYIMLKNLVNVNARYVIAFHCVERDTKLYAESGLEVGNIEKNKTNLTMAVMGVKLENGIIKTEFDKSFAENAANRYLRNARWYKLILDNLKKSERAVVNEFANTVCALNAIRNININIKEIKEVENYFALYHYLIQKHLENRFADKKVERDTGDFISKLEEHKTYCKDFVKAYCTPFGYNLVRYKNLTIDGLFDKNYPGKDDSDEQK
The experiment in a line: crRNA (strand 1, pre-loaded); Mg2+; 40 mM Tris-HCl pH 7.5, 150 mM NaCl, 6 mM MgCl2, 1 mM DTT, 0.1% Tween-20, 0.2 mg/ml BSA; 25 C; 10 min per concentration, then washed. Conditions: tags: His6-TwinStrep-SUMO cleaved; N-terminal SNAP kept (SNAP-Surface 488); label: 3' end held by stalled T7 RNA polymerase.
A word on the Kd: it is a measure of binding affinity in units of concentration. Read a high Kd as a looser complex. As for B1, the Kd was determined as 5.32 ± 0.26 nM.
Then B2, with 29 ± 4 nM; and B3, with about 80 nM; and B4, with 41 ± 14 nM.
In the case of B5, the Kd was 8.2 ± 1.1 nM.
For B6 the value was 12.1 ± 1.3 nM.
In turn, B7 gave a Kd of 6.5 ± 2 nM.
B8 came in with a Kd of 4.5 ± 0.9 nM.
Regarding B9, the Kd came to 3.7 ± 0.8 nM.
B10: binding was characterised by a dissociation constant (Kd) of 25 ± 7 nM.
B11 showed a Kd of 5.6 ± 0.4 nM.
The molecule B12 had a Kd of 7.9 ± 1.5 nM.
For the molecule B13, binding was characterised by a dissociation constant (Kd) of 14.9 ± 1 nM.
The molecule B14 yielded a Kd of 9 ± 1.4 nM.
Then B15, with 8.8 ± 2.1 nM.
Consider B16, for which the affinity, expressed as Kd, was 4.26 ± 0.3 nM.
As to B17, binding was put at a Kd of 6 ± 1.2 nM.
For B18 the value was 41 ± 11 nM.
B19 returned a Kd of 12.5 ± 1.3 nM.
For B20 the value was 7.7 ± 1.1 nM; for B21, 7.5 ± 1 nM.
The molecule B22 had a Kd of 27 ± 7 nM.
For B23 the value was 4.1 ± 0.6 nM; for B24, 4.8 ± 0.5 nM; for B25, 8.5 ± 2.1 nM.
Take B26: the Kd stood at 4.5 ± 0.5 nM.
Regarding B27, the Kd stood at 9.2 ± 0.8 nM.
The molecule B28 came in with a Kd of 24 ± 9 nM.
Take B29: the affinity, expressed as Kd, was 3.1 ± 0.5 nM.
B30 yielded a Kd of 15.3 ± 2.1 nM.
